Data: patent publication US20120015885A1

Target: CaMKIV
Experiment: cell-based or functional assay

Binder: YGRKKRRQRRRKRPPKLGQIGRSKRVVIEDDR (modifications not checked) [tatCN21]
- kinase activity in a kinase panel, 5 µM tatCN21, reduction: 35%
